Source: patent US10568950B1, “Peptides, combination of peptides and scaffolds for use in immunotherapeutic treatment of various cancers” (Immatics Biotechnologies GmbH, priority 2015, dated 2020)

Molecular target: HLA-A*02 (Homo sapiens, UniProt P04439, D140Y/D185E/D98H/E176V/E277Q/G131W/G231S/I119V/I121R/I166T/I218V/N151K/N90K/P208A/P217A/Q86G/Q94H/R138H/R169H)
Test: MHC binding assay: UV-ligand exchange, beta2m ELISA (peptide exchange yield)
Conditions: binding to HLA-A*02, β2m ELISA
Source text: Candidate peptides for T cell based therapies according to the present invention were further tested for their MHC binding capacity (affinity). The individual peptide-MHC complexes were produced by UV-ligand exchange, where a UV-sensitive peptide is cleaved upon UV-irradiation, and exchanged with the peptide of interest as analyzed. Only peptide candidates that can effectively bind and stabilize the peptide-receptive MHC molecules prevent dissociation of the MHC complexes. To determine the yield of the exchange reaction, an ELISA was performed based on the detection of the light chain (β2m) of stabilized MHC complexes. The assay was performed as generally described in Rodenko et al. (Rodenko et al., 2006).
96 well MAXISorp plates (NUNC) were coated over night with 2 ug/ml streptavidin in PBS at room temperature, washed 4× and blocked for 1 h at 37° C. in 2% BSA containing blocking buffer. […] Peptide-MHC monomers of the UV-exchange reaction were diluted 100 fold in blocking buffer. Samples were incubated for 1 h at 37° C., washed four times, incubated with 2 ug/ml HRP conjugated anti-βm for 1 h at 37° C., washed again and detected with TMB solution that is stopped with […]. Absorption was measured at 450 nm. Candidate peptides that show a high exchange yield (preferably higher than 50%, most preferred higher than 75%) are generally preferred for a generation and production of antibodies or fragments thereof, and/or T cell receptors or fragments thereof, as they show sufficient avidity to the MHC molecules and prevent dissociation of the MHC complexes.

Substance | Peptide exchange (MHC class I binding score, peptide exchange yield)
72 (GMIGFQVLL; listed as Homo sapiens) [compound 72] | +++ (50%-75% = +++)
29 (TLCNKTFTA; listed as Homo sapiens) [compound 29] | +++ (50%-75% = +++)
61 (HLPDFVKQL; listed as Homo sapiens) [compound 61] | ++ (20%-49% = ++)
80 (TLDEYLTYL; listed as Homo sapiens) [compound 80] | +++ (50%-75% = +++)
40 (SLLALPQDLQA; listed as Homo sapiens) [compound 40] | +++ (50%-75% = +++)
62 (SLFNQEVQI; listed as Homo sapiens) [compound 62] | +++ (50%-75% = +++)
334 (GRADALRVL; listed as Homo sapiens) [compound 334] | +++ (50%-75% = +++)
35 (YVLPKLYVKL; listed as Homo sapiens) [compound 35] | ++ (20%-49% = ++)
324 (AIFDFCPSV; listed as Homo sapiens) [compound 324] | ++++ (>= 75% = ++++)
90 (GAVAEEVLSSI; listed as Homo sapiens) [compound 90] | + (<20% = +)
25 (IQADDFRTL; listed as Homo sapiens) [compound 25] | ++ (20%-49% = ++)
36 (KLYGIEIEV; listed as Homo sapiens) [compound 36] | ++++ (>= 75% = ++++)
58 (ALDDSLTSL; listed as Homo sapiens) [compound 58] | ++ (20%-49% = ++)
323 (ILSVVNSQL; listed as Homo sapiens) [compound 323] | +++ (50%-75% = +++)
39 (ALMAVVSGL; listed as Homo sapiens) [compound 39] | +++ (50%-75% = +++)
31 (ALSDETKNNWEV; listed as Homo sapiens) [compound 31] | ++++ (>= 75% = ++++)
88 (ILLNTEDLASL; listed as Homo sapiens) [compound 88] | +++ (50%-75% = +++)
63 (TLSSERDFAL; listed as Homo sapiens) [compound 63] | + (<20% = +)
22 (MLSDLTLQL; listed as Homo sapiens) [compound 22] | ++++ (>= 75% = ++++)

Substance | Peptide exchange (MHC class I binding score, peptide exchange yield)
64 (GLSSSSYEL; listed as Homo sapiens) [compound 64] | ++ (20%-49% = ++)
84 (FLEEEITRV; listed as Homo sapiens) [compound 84] | +++ (50%-75% = +++)
48 (TLDHKPVTV; listed as Homo sapiens) [compound 48] | ++ (20%-49% = ++)
82 (VLLRVLIL; listed as Homo sapiens) [compound 82] | ++ (20%-49% = ++)
1 (PLWGKVFYL; listed as Homo sapiens) [compound 1] | ++ (20%-49% = ++)
338 (LLYDGKLSSA; listed as Homo sapiens) [compound 338] | ++ (20%-49% = ++)
18 (YVLNEEDLQKV; listed as Homo sapiens) [compound 18] | +++ (50%-75% = +++)
23 (AQTVVVIKA; listed as Homo sapiens) [compound 23] | + (<20% = +)
75 (ILDNVKNLL; listed as Homo sapiens) [compound 75] | +++ (50%-75% = +++)
56 (KILDLTRVL; listed as Homo sapiens) [compound 56] | ++ (20%-49% = ++)
47 (GLYQAQVNL; listed as Homo sapiens) [compound 47] | +++ (50%-75% = +++)
21 (SLYHRVLLY; listed as Homo sapiens) [compound 21] | ++++ (>= 75% = ++++)
45 (VLGPTPELV; listed as Homo sapiens) [compound 45] | +++ (50%-75% = +++)
85 (STLDGSLHAV; listed as Homo sapiens) [compound 85] | +++ (50%-75% = +++)
11 (GVLKVFLENV; listed as Homo sapiens) [compound 11] | ++ (20%-49% = ++)
326 (SLLPLVWKI; listed as Homo sapiens) [compound 326] | +++ (50%-75% = +++)
321 (SLWFKPEEL; listed as Homo sapiens) [compound 321] | +++ (50%-75% = +++)
4 (ELAEIVFKV; listed as Homo sapiens) [compound 4] | +++ (50%-75% = +++)
6 (FLDPAQRDL; listed as Homo sapiens) [compound 6] | +++ (50%-75% = +++)

Substance | Peptide exchange (MHC class I binding score, peptide exchange yield)
37 (ALINDILGELVKL; listed as Homo sapiens) [compound 37] | +++ (50%-75% = +++)
69 (GIYDGILHSI; listed as Homo sapiens) [compound 69] | +++ (50%-75% = +++)
87 (YLTEVFLHVV; listed as Homo sapiens) [compound 87] | +++ (50%-75% = +++)
339 (VLGPGPPPL; listed as Homo sapiens) [compound 339] | ++ (20%-49% = ++)
74 (ILDETLENV; listed as Homo sapiens) [compound 74] | ++ (20%-49% = ++)
3 (TLLGKQVTL; listed as Homo sapiens) [compound 3] | +++ (50%-75% = +++)
71 (GLITVDIAL; listed as Homo sapiens) [compound 71] | +++ (50%-75% = +++)
335 (VLLAAGPSAA; listed as Homo sapiens) [compound 335] | ++ (20%-49% = ++)
59 (ALTKILAEL; listed as Homo sapiens) [compound 59] | +++ (50%-75% = +++)
27 (KVFGDLDQV; listed as Homo sapiens) [compound 27] | +++ (50%-75% = +++)
60 (FLIDTSASM; listed as Homo sapiens) [compound 60] | ++ (20%-49% = ++)
32 (ILADEAFFSV; listed as Homo sapiens) [compound 32] | +++ (50%-75% = +++)
91 (SSLEPQIQPV; listed as Homo sapiens) [compound 91] | + (<20% = +)
28 (TLYSMDLMKV; listed as Homo sapiens) [compound 28] | +++ (50%-75% = +++)
340 (SVAKTILKR; listed as Homo sapiens) [compound 340] | ++ (20%-49% = ++)
337 (KVLGKIEKV; listed as Homo sapiens) [compound 337] | +++ (50%-75% = +++)
79 (SLVPLQILL; listed as Homo sapiens) [compound 79] | ++++ (>= 75% = ++++)
54 (FINPKGNWLL; listed as Homo sapiens) [compound 54] | +++ (50%-75% = +++)
24 (FLWNGEDSAL; listed as Homo sapiens) [compound 24] | +++ (50%-75% = +++)
